Measured values published in patent US20250222128A1, “ANTIBODY DRUG-CONJUGATES TARGETING C-MET AND METHODS OF USE THEREOF” (Zymeworks BC Inc., priority 2022, published 2025).

Tests used:
[1] = molecular target: c-Met (hepatocyte growth factor receptor, HGFR), endogenous on tumour cell lines (UniProt P08581); test: cell-based or functional assay
[2] = molecular target: c-Met (hepatocyte growth factor receptor, HGFR), endogenous on tumour cell lines (UniProt P08581); test: apparent Kd, flow cytometry on H292 cells (endogenous cMet)
[3] = molecular target: c-Met (hepatocyte growth factor receptor, HGFR), endogenous on tumour cell lines (UniProt P08581); test: apparent Kd, flow cytometry on SNU-5 cells (endogenous cMet)

Chain of c-Met (hepatocyte growth factor receptor, HGFR), endogenous on tumour cell lines (P08581 25-1390 limits assumed): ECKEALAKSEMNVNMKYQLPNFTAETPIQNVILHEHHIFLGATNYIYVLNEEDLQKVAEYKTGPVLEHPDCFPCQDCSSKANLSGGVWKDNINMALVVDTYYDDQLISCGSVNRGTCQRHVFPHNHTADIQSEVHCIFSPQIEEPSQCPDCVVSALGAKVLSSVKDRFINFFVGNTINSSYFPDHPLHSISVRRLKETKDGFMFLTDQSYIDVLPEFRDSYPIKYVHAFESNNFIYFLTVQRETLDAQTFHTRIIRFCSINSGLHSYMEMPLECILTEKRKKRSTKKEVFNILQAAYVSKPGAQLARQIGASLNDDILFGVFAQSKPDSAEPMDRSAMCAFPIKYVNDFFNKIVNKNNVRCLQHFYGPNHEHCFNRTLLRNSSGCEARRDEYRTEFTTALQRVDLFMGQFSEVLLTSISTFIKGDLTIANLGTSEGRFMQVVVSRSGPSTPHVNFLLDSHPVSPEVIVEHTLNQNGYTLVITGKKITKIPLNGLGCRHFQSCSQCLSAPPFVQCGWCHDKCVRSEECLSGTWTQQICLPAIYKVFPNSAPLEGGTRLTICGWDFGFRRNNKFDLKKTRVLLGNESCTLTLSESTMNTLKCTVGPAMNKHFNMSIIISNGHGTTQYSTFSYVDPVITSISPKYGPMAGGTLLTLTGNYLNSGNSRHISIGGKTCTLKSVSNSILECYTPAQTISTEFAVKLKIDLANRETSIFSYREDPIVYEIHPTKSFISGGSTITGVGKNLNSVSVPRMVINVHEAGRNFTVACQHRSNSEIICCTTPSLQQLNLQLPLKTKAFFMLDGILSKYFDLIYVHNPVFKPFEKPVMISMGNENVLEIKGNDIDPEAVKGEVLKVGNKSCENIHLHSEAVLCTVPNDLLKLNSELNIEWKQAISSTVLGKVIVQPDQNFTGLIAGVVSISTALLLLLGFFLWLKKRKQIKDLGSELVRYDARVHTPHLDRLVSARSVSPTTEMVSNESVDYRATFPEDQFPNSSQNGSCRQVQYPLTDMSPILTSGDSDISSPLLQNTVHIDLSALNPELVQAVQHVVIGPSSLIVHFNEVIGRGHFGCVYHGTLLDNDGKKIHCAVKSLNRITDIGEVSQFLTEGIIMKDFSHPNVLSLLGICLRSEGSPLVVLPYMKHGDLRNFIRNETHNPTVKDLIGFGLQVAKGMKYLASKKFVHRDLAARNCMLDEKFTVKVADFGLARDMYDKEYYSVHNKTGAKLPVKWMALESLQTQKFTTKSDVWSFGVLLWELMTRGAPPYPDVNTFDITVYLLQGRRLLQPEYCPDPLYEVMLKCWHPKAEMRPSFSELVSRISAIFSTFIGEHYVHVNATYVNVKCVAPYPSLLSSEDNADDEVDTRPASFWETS

palivizumab (v22277), unconjugated anti-RSV antibody
Mean Object Fluorescence (Internalized), 5 Hours 37° C., EBC-1, 0.3 nM [1]: 2690 | Mean Object Fluorescence (Internalized), 5 Hours 37° C., EBC-1, 1.9 nM [1]: 3050 | Mean Object Fluorescence (Internalized), 5 Hours 37° C., EBC-1, 12 nM [1]: 1990 | Mean Object Fluorescence (Internalized), 5 Hours 37° C., EBC-1, 70 nM [1]: 2600 | Mean Object Fluorescence (Internalized), 5 Hours 37° C., HT-29, 0.3 nM [1]: 2750 | Mean Object Fluorescence (Internalized), 5 Hours 37° C., HT-29, 1.9 nM [1]: 2360 | Mean Object Fluorescence (Internalized), 5 Hours 37° C., HT-29, 12 nM [1]: 2330 | Mean Object Fluorescence (Internalized), 5 Hours 37° C., HT-29, 70 nM [1]: 2290 | Kd [2]: > 50 nM | Kd [3]: > 50 nM
